Reference: patent US20130035289A1, “PHARMACEUTICAL COMPOSITION FOR TREATMENT OF THROMBOSIS-RELATED DISEASES COMPRISING A FRAGMENT OF PROLACTIN (PRL)-GROWTH HORMONE (GH)-PLACENTAL LACTOGEN (PL)-FAMILY PROTEIN” (UNIVERSITE DE LIEGE, priority 2010, published 2013)

Tests used:
[1] = molecular target: T1, PAI-1 (Mus musculus, UniProt P22777); test: Murine thromboembolism model (tPA/thromboplastin); assay type: in vivo; details: recombinant 16K PRL 1 mg/kg i.v. 5 min before t-PA/thromboplastin; survival at 15 min; control group 73%; p=0.003
T1 construct: from tissue; host or cells: BalbC Njrj mice, in vivo (blood)
T1 sequence (P22777 23-402): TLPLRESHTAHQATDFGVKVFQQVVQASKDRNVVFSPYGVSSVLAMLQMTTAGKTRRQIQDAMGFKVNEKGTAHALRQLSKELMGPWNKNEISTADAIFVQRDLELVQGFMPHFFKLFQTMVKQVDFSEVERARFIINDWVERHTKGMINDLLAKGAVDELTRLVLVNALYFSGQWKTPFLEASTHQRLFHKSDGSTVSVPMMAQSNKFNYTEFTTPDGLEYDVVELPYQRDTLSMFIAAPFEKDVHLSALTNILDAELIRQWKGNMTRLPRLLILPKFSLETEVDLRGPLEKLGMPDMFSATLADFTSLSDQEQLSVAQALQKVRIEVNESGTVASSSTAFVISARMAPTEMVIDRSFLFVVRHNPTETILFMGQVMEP
Procedure: BalbC Njrj Mice were used and anesthetised with ketamine/xylazine throughout the whole experiment. Recombinant 16K PRL and adenovirus vectors 16K-Ad and Null-Ad were produced as described above. The animal experiment protocol used was approved by the Institutional Ethics Committee of the University of Liege.
Recombinant 16K PRL (1 mg/kg) or POPRL 7-12 (10 mg/kg) were administrated via the vein to BalbC Njrj mice of approximately 15-18 g. Five minutes after the injection, a suboptimal concentration of t-PA (0.1 mg/kg) was injected immediately followed by i.v. injection of thromboplastin (3.3 μg/kg) to evoke thromboembolism. Mice were evaluated after 15 min for survival. For experiment with adenovirus vectors, mice were injected into the tail vein with 10^9 pfu of 16K hPRL adenovirus (16K-Ad) and their corresponding control (Null-Ad) 5 days before the injection a suboptimal concentration of t-PA (0.1 mg/kg) injected immediately followed by i.v. injection of thromboplastin (3.3 μg/kg).
The fisher test was used to determine the significance of the differences in the mortality assays.

[2] = tested on: B16F10 tumor; test: B16F10 subcutaneous tumor model in wild type and PAI-1 deficient mice; assay type: in vivo, mouse
Procedure: Homozygous PAI-1 deficient mice (PAI-1^−/−) and the corresponding WT mice (PAI^+/+) from either sex with a mixed genetic background 87% C57BL/6 and 13% 129 strain were used throughout this study. The animal experiment protocol used was approved by the Institutional Ethics Committee of the University of Liege.
Subconfluent B16-F10 cells were trypsinized, washed, and resuspended in PBS. Cell suspension (10^5 cells in 50 μl PBS) was injected subcutaneously into the right flank of mice experiments were performed on seven mice in each group. 18 to 20 days after tumor cells injection, the mice were killed and their tumors harvested. Tumor growth was assessed by measuring the length and width of each tumor every 1 to 2 days and calculating tumor volume by means of the formula: length×width^2×0.5.
16K-Ad is a defective recombinant E1-E3-deleted adenovirus vector encoding a secreted polypeptide consisting of the first 139 amino acids of PRL. This adenovirus vector was constructed as previously described with the help of the Adeno-X expression system (BD Biosciences, Erembodegem, Belgium). Null-Ad is a control adenovirus carrying an empty expression cassette. A recombinant adenovirus vector bearing WT human PAI-1 (AdCMVPAI-1) and control adenovirus (AddRR5) were generated as previously described.
The 16K hPRL adenovirus and their corresponding control were injected into mouse tail vein 2 days before the subcutaneous injection of tumor cells. A second injection was done 8 days after the first one. The wt PAI-1 adenovirus and their control were injected one day after the 16K hPRL adenovirus injections. 10^9 pfu of adenoviruses were used for each tail vein injection.
HUVECs were grown to 70% confluence on gelatin-coated 35-mm dishes. After incubation for 3 h with 14K GH (160 ng/ml) or 16K PRL (160 ng/ml), the cells were washed with PBS at room temperature and incubated for 1 h at room temperature under non-permeabilization conditions with mouse anti uPA (American Diagnostica INC) diluted 1/100, rabbit anti prolactin (Dako) diluted 1/100, or rabbit anti human GH (home made) diluted 1/100. Endothelial cells were washed in PBS and incubated with FITC horse anti mouse (Vector Laboratory) and Texas red goat anti rabbit antibodies (Jackson Laboratory). For PAI-1 staining, the cells were incubated simultaneously with Histag PAI-1 at 800 uM and 16K PRL or 14K GH. […] Cryostat tumor sections (5 μm thick) were fixed in acetone at −20° C. and in 100% methanol at 4° C. and then incubated with the primary antibodies, rat monoclonal anti PECAM-1, and rabbit polyclonal anti-prolactin (DAKO) for 1 hour at room temperature. The slides were washed and incubated with a Cy3 goat anti-rat and an FITC goat anti-rabbit antibody. After 3 washes in PBS for 10 min, the slides were covered with coverslips in mounting medium (Victor Laboratories Inc.) and analyzed by fluorescence microscopy.

B1: 16K hPRL: 16K N-terminal human prolactin fragment, recombinant, produced and purified from E. coli (protein)
chain: LPICPGGAARCQVTLRDLFDRAVVLSHYIHNLSSEMFSEFDKRYTHGRGFITKAINSCHTSSLATPEDKEQAQQMNQKDFLSLIVSILRSWNEPLYHLVTEVRGMQEAPEAILSKAVEIEEQTKRLLEGMELIVSQVHP
mortality [1]: 32% | 16K PRL localization (immunostaining) ([2]; PAI-1-deficient mice): only in the bloodstream | plasma level of 16K PRL at the end of the experiment ([2]; PAI-1 deficient mice): remained detectable | anti-tumoral effect ([2]; PAI-1 deficient mice with systemic expression of human PAI-1 (adenoviral vector)): restored | tumor growth ([2]; PAI-1 deficient mice, 16K PRL expressed via 16K-Ad): did not show a tumor growth reduction | tumor blood vessels ([2]; PAI-1−/− mice): appeared normal | plasma level of 16K PRL at the end of the experiment ([2]; mice where human PAI-1 expression was restored): considerably dropped off | 16K PRL localization (immunostaining) ([2]; wild-type mice and PAI-1−/− mice injected with PAI-1-Ad): observed in tumor tissues | tumor blood vessels ([2]; wild-type mice, versus untreated controls): smaller, collapsed blood vessels
